Source: patent publication US20230137139A1, “BIOSYNTHESIS OF CANNABINOIDS AND C[…]” (priority 2020, published 2023)

B1: putative C. sativa CBCAS enzyme: previously disclosed putative C. sativa CBCAS (SEQ ID NO: 15) (protein)
chain: MNCSTFSFWFVCKIIFFFLSFNIQISIANPQENFLKCFSEYIPNNPANPKFIYTQHDQLYMSVLNSTIQNLRFTSDTTPKPLVIVTPSNVSHIQASILCSKKVGLQIRTRSGGHDAEGLSYISQVPFAIVDLRNMHTVKVDIHSQTAWVEAGATLGEVYYWINEMNENFSFPGGYCPTVGVGGHFSGGGYGALMRNYGLAADNIIDAHLVNVDGKVLDRKSMGEDLFWAIRGGGGENFGIIAACKIKLVVVPSKATIFSVKKNMEIHGLVKLFNKWQNIAYKYDKDLMLTTHFRTRNITDNHGKNKTTVHGYFSSIFLGGVDSLVDLMNKSFPELGIKKTDCKELSWIDTTIFYSGVVNYNTANFKKEILLDRSAGKKTAFSIKLDYVKKLIPETAMVKILEKLYEEEVGVGMYVLYPYGGIMDEISESAIPFPHRAGIMYELWYTATWEKQEDNEKHINWVRSVYNFTTPYVSQNPRLAYLNYRDLDLGKTNPESPNNYTQARIWGEKYFGKNFNRLVKVKTKADPNNFFRNEQSIPPLPPRHH
B2: t861585 (protein)
chain: MGNTTSIAGRDCLVSALGGNAGLVAFQNQPLYQTTAVHEYNLNIPVTPAAITYPETAEQIAAVVKCASQYDYKVQARSGGHSFGNYGLGGTDGAVVVDMKYFNQFSMDDQTYEAVIGPGTTLGDVDVELYNNGKRAMAHGVCPTISTGGHFTMGGLGPTARQWGLALDHVEEVEVVLANSSIVRASNTQNQEVFFAVKGAAASFGIVTEFKVRTQPAPGIAVQYSYTFNLGSSAEKAQFIKDWQSFVSAKNLTRQFYTNMVIFDGDIILEGLFFGSKEQYEALRLEERFVPKNPGNILVLTDWLGMVGHALEDTILRLVGNTPTWFYAKSLGFTPDTLIPSSGIDEFFKYIENNKAGTSTWFVTLSLEGGAINDVPADATAYGHRDVLFWVQIFMVSPTGPVSSTTYDFADGLYNVLTKAVPESEGHAYLGCPDPKMANAQQKYWRQNLPRLEELKETLDPKDTFHNPQGILPA
modifications: N- and C-terminal signal peptides

Tests used:
[1] = tested on: CBCA, THCA, and CBDA production; experiment: In vivo TS activity assay, Example 1 CBCAS library screen, cultures fed olivetolic acid, LC-MS; assay type: cell-based, S. cerevisiae; conditions: primary and secondary screen
Description: To identify CBCAS genes that can be functionally expressed in host cells, a library of approximately 3000 candidate CBCAS genes was designed based on internal codebases and domain knowledge, sampled across enzyme families, ecological niches, and structural homologies. Protein sequences were recoded in silico for expression in S. cerevisiae and synthesized in the integrative yeast expression vector shown in FIG. 5. Each candidate enzyme expression construct was transformed into an S. cerevisiae CEN.PK strain that also expressed a prenyltransferase enzyme capable of catalyzing reaction R^4 in FIG. 2. Strain t616313, expressing GFP, was included in the library screen as a negative control for enzyme activity. […]
An assay to detect TS activity was conducted as follows: each thawed glycerol stock of candidate CBCAS transformants was stamped into a well of YEP+4% dextrose media. […] Optical measurements were taken on a plate reader, with absorbance measured at 600 nm and fluorescence at 528 nm with 485 nm excitation. […] CBCA, THCA, and CBDA production in the samples was quantified via liquid chromatography-mass spectrometry (LC-MS). […]

[2] = tested on: CBCA production; experiment: In vivo TS activity assay, Example 4 CBCAS enzymes with and without signal peptides, no pH adjustment; assay type: cell-based; conditions: strains with (Y) or without (N) N-terminal and C-terminal signal peptides; no pH adjustment at Day 4; S. cerevisiae
Outline: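 S. cerevisiae CEN.PK strains co-expressing a prenyltransferase and CBCAS variants, with or without MFalpha2/HDEL signal peptides, were grown in YEP galactose at 20 °C for 4 days with daily 1 mM olivetolic acid and galactose feeds. No pH 5.5 citrate step was applied. CBCA was quantified by LC-MS in methanol extracts.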

Molecule | CBCAS activity / CBCA production [1] | Average CBCA [2]
B1 | not found to be active | –
B2 | – | 39673.45 µg/L
